T1: human Siglec-15 on CHO-K1/human Siglec-15 cells (KYinno, Beijing) (human, UniProt Q6ZMC9 20-328)
T1 sequence: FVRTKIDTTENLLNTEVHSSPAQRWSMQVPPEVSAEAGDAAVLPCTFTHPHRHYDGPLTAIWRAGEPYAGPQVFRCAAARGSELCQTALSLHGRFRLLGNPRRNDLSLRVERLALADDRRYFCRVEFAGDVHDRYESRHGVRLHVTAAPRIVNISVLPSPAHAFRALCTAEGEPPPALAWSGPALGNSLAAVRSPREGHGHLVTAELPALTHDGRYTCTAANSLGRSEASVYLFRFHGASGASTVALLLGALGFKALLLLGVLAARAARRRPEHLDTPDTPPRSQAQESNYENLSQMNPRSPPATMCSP

T2: human Siglec-15 ECD-his protein (Acrobiosystems, Cat #: SG5-H52H3) (human, UniProt Q6ZMC9 20-263)
T2 construct: Bought protein; only its extracellular domain stood in the assay; also called human Siglec-15 protein; recombinant human Siglec-15 protein; not shown: his tag
T2 sequence: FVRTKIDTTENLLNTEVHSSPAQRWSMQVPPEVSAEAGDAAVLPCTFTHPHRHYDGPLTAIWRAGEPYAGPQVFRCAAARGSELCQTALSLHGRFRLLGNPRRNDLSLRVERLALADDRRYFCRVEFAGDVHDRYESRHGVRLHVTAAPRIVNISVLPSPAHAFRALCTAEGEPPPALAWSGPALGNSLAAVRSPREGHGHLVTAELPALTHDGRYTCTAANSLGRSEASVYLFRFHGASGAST

T3: cynomolgus monkey Siglec-15-his protein (Acrobiosystems, Cat #: SG5-C52H6) (cynomolgus monkey, UniProt Q6ZMC9 20-263 (human entry))
T3 construct: Bought protein; also called cynomolgus monkey Siglec-15 protein; not shown: his tag
T3 chain: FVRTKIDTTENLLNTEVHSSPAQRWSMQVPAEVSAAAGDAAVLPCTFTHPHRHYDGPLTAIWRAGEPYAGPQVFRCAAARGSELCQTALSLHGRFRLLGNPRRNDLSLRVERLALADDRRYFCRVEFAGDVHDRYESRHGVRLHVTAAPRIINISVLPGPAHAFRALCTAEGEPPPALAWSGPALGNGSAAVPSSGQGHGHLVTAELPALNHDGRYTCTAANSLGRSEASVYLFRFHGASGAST


Tests used:
[1] = target: T1, human Siglec-15 on CHO-K1/human …; test: flow cytometry on CHO-K1/human Siglec-15 cells
Method: CHO-K1/human Siglec-15 cells (KYinno, Beijing) were adjusted to a density of 1×10⁶/mL with PBS, and the cell suspension was added to a 96-well V-bottom plate at 100 μL/well. The 96-well V-bottom plate was centrifuged at 1000 rpm for 5 min and washed once with PBS+2% FBS. The cells were resuspended in […] of antibody diluted in a gradient (5-fold dilution, starting concentration: 500 nM) and incubated at 4° C. for 1 h, and PR300066 and hIgG1 were used as positive control and negative control, respectively. After 1 h, the cells were washed twice with PBS+2% FBS. The cells were incubated with 100 μL of Alexa Fluor 488 goat anti-human IgG (Jackson, Cat #: 109-545-098) at 4° C. for 1 h in the dark and then washed twice with PBS+2% FBS. The cells were then resuspended in 200 μL of PBS+2% FBS. The fluorescence intensity of the cells was analyzed using a BD FACSCanto™ II flow cytometer.

[2] = target: T2, human Siglec-15 ECD-his protein …; test: BLI (Octet RED96), antibody on AHC sensor, Siglec-15 ECD-his as analyte
Method: Recombinant Human Siglec-15 Protein Affinity was determined using an Octet RED96 instrument (ForteBio) and an anti-human IgG Fc capture sensor (AHC biosensor, ForteBio, Cat #: 18-5060) according to the detailed procedures and methods provided by the manufacturer. Specifically, candidate antibodies were each diluted to a final concentration of 6 µg/mL and directly immobilized on AHC biosensors for kinetic measurements. The antigenic protein Siglec-15 ECD-his protein (Acrobiosystems, Cat #: SG5-H52H3) was diluted with 10× Kinetics buffer to 3 concentrations of 60 nM, 30 nM, and 15 nM separately and injected as the analyte for 120 s with a dissociation time of 400 s and then subjected to regeneration with 10 mM glycine HCl (pH 1.5) for 15 s. The association rate (kon) and dissociation rate (kdis) were calculated using a simple one-to-one Languir binding model (Octet Red96 data analysis software). The equilibrium dissociation constant (kD) was calculated as the ratio of kdis/kon.

[3] = target: T4, mouse Siglec-15-his protein (Acrobiosystems, Cat #: SG5-M52H7) (mouse); test: ELISA, coated mouse Siglec-15-his
T4 construct: Bought protein; also called mouse Siglec-15 protein
Method: (§1) […] mouse Siglec-15-his protein (Acrobiosystems, Cat #: SG5-M52H7) dissolved in PBS was added to an ELISA plate at 100 μL/well for coating and the plate was incubated overnight at 4° C. The ELISA plate was then blocked with PBST (PBS+0.05% Tween 20) containing 2% BSA at 200 μL/well and incubated at 37° C. for 1 h. The ELISA plate was washed 4 times with PBST. The anti-Siglec-15 antibody diluted in a gradient (5-fold dilution, starting concentration: 6.67 nM) was added to the ELISA plate at 100 μL/well and the plate was incubated at 37° C. for 1 h. The ELISA plate was washed 4 times with PBST. The goat anti-human IgG (H+L)-HRP (1:5000, Jackson, Cat: 109-035-088) was added at 100 μL/well and the plate was incubated at 37° C. for 1 h. The ELISA plate was washed 4 times with PBST. The TMB substrate (Biopanda, Cat: TMB-S-003) was added at 100 μL/well, and the plate was incubated at room temperature for 5 min, and then the stop buffer (Solarbio, Cat #: C1058) was added at 100 μL/well to stop the reaction.

[4] = target: T2, human Siglec-15 ECD-his protein …; test: ELISA, coated human Siglec-15 ECD-his
Method: as §1, with “human Siglec-15 ECD-his” for “mouse Siglec-15-his”, “SG5-H52H3)” for “SG5-M52H7)”, “Cat #:” for “Cat:”

[5] = target: T3, cynomolgus monkey Siglec-15-his protein …; test: ELISA, coated cynomolgus monkey Siglec-15-his
Method: […] cynomolgus monkey Siglec-15-his protein (Acrobiosystems, Cat #: SG5-C52H6) dissolved in PBS was added to an ELISA plate at 100 μL/well for coating and the plate was incubated overnight at 4° C. The ELISA plate was then blocked with PBST (PBS+0.05% Tween 20) containing 2% BSA at 200 μL/well and incubated at 37° C. for 1 h. The ELISA plate was washed 4 times with PBST. The anti-Siglec-15 antibody diluted in a gradient (5-fold dilution, starting concentration: 6.67 nM) was added to the ELISA plate at 100 µL/well and the plate was incubated at 37° C. for 1 h. The ELISA plate was washed 4 times with PBST. The goat anti-human IgG (H+L)-HRP (1:5000, Jackson, Cat #: 109-035-088) was added at 100 μL/well and the plate was incubated at 37° C. for 1 h. The ELISA plate was washed 4 times with PBST. The TMB substrate (Biopanda, Cat #: TMB-S-003) was added at 100 μL/well, and the plate was incubated at room temperature for 5 min, and then the stop buffer (Solarbio, Cat #: C1058) was added at 100 μL/well to stop the reaction.

EC50 [1] [nM] | Maximum (MFI) [1] [MFI] | Kd [2] [nM] | koff [2] [s⁻¹] | kon [2] [M⁻¹ s⁻¹] | EC50 [3] [nM] | EC50 [4] [nM] | EC50 [5] [nM] | Binder
1.49 | 16600 | 0.0858 | 3.09e-05 | 361000 | 0.079 | 0.018 | 0.025 | PR300670 (antibody, human IgG1, kappa, V domains shown) VH: QVQLVESGGGVVQPGRSLRLSCVASGFTFSTYGIHWVRQAPGKGLDWVSVIWYDGSHKYYADSVQDRFTISRDNSKNTLYLQMNSLRAEDTAVYYCAREGMITMVRGVIIDYQYHGMDVWGQGTTVTVSS VL: DIQMTQSPSTLSASVGDRVTITCRASQSIGRRLAWYQQKPGKAPKLLIYKASSLESGVPSRFSGSGSGTEFTLTISSPQPDDFATYYCQQYHSYSYTFGQGTKLEIKR
– | – | – | – | – | 0.104 | 0.02 | 0.071 | PR300526 (antibody, human IgG1, kappa, V domains shown) VH: QVQLVQSGAEVKKPGASVKVSCKASGYTFTDYYMHWVRQAPGQGLEWMGWINPNSDGTNYAQRFQGRVTMTRDTSISTAYMELSRLRSDDTAVYYCARGRLLRFFDWLDVMDAWGQGTSVTVSS VL: not shown
3.45 | 24000 | 0.00305 | 3.25e-06 | 1.07e+06 | 0.013 | 0.01 | ~0.011 | PR300659 (antibody, human IgG1, kappa, V domains shown) VH: QVQLVESGGGVVQPGRSLRLSCAASGFIFSSYDIYWVRQAPGKGLEWVAVIWHDGSNKYYADSVKGRFTISRDNSKNTVYLQMNSLRAEDTAVYYCARDTHSYGSRIYYDYNYGMDVWGQGTTVTVSS VL: DIQMTQSPSSLSASVGDRVSITCRASQSISSYLNWYQQKPGKAPKLLIYAASSLQSGVPSRFSGSGSGADFTLTISSLQPEDFATYYCQQTYSPPFTFGPGTKVDIKR

— patent US20260070974A1 (NONA BIOSCIENCES SUZHOU, published 2026)
